We go through two molecules from patent publication US8822645B2, “Prostaglandin E2 dual variable domain immunoglobulins and uses thereof” (AbbVie Inc., priority 2008, dated 2014).

A short description of data set [1]: PGE2-biotinamide ELISA (PGE2 binding). The settings on record: PGE2 VD in N-terminal position, read-out: Direct Bind ELISA N-terminal VD EC50. The procedure:
(§1) Enzyme linked immunosorbent assays to screen for anti-PGE2 antibodies or anti-PGE2 containing DVD-Ig molecules that bind prostaglandin E2 were performed as follows. ELISA plates (Costar 3369, Corning, N.Y.) were coated with 50 μl of anti-host Fc IgG (Sigma, St. Louis, Mo.) at 2 μg/ml in PBS (Invitrogen Carlsbad, Calif.). Following an overnight incubation at 4° C., the plate was blocked with 200 μl Superblock (Pierce #37535, Rockford, Ill.). The IgG or DVD-Ig containing samples were diluted to 1 μg/ml in Assay Buffer (10% Superblock in PBS containing 0.05% Surfactamps (Pierce #37535, Rockford, Ill.) and incubated on the plate at 50 μl/well for 1 hour at room temperature. Following the incubation, plates were washed four times with TTBS (Tween-Tris Buffered Solution). For PGE2 binding, PGE2-biotinamide (Cayman Chemicals, Ann Arbor, Mich.) was diluted to 30 nM and serially diluted in Assay Buffer. The titration curve was added to each IgG or DVD-Ig sample at a volume of 50 μl/well and incubated for 1 hour at room temperature. The plates were washed as previously described and 50 μl/well of 1:5000 dilution of streptavidin polyhrp40 (Fitzgerald Industries, Concord, Mass.) in Assay Buffer was added and incubated for 45 minutes at room temperature. A final wash step was performed and the plates were developed using a single step TMB system (Sigma #T8665, St. Louis, Mo.) and 2N H2SO4. Plates were read at 450 nm on a Molecular Devices Spectramax plate reader (Sunnyvale, Calif.). EC50 was determined using GraphPad Prism 5 (GraphPad Software, La Jolla, Calif.) (FIG. 2).
as §1, with “ELISA” for “Enzyme linked immunosorbent assays to screen for anti-PGE2 antibodies or anti-PGE2 containing DVD-Ig molecules that bind prostaglandin E2 were performed as follows. ELISA”, “(Invitrogen,” for “(Invitrogen”, “IgG” for “IgG or DVD-Ig”, “Solution).” for “Solution). For PGE2 binding,”, “Calif.).” for “Calif.) (FIG. 2).”

The subject of data set [2] is PGE2 / human EP4 receptor in HEK293 Gα16 cells. As to the kind of experiment: EP4 bioassay (Ca++ flux, neutralization of PGE2). The format is cell-based. The settings on record: PGE2 VD in N-terminal position; EP4 bioassay, Ca++ flux; read-out: N-terminal VD PGE2 Neutralization EC50. The procedure:
The ability of anti-PGE2 antibodies and anti-PGE2 containing DVD-Ig molecules to inhibit the cellular response of PGE2 was determined in a Ca++ flux assay in HEK293 Gα16 cells stably transfected with human EP4 receptor. Cells were plated in black/clear poly-D-lysine plates, (Corning #3667, Corning, N.Y.) and incubated with Ca++-sensitive dye (Molecular Devices) for 90 minutes. Stock PGE2 (in 200 proof ethanol) was diluted with FLIPR buffer (containing 1×HBSS (Invitrogen, Carlsbad, Calif.), 20 mM HEPES (Invitrogen, Carlsbad, Calif.), 0.1% BSA (Sigma, St. Louis, Mo.) and 2.5 mM Probenecid (Sigma, St. Louis, Mo.)). Anti-PGE2 antibodies, DVD-Ig molecules or isotype matched control antibodies were also pre-diluted in FLIPR buffer. 25 μl of PGE2 or pre-incubated PGE2/antibody mixture or pre-incubated PGE2/DVD-Ig molecule mixture was added to the wells pre-plated with cells. A dose response of PGE2 was done by a serial titration of PGE2 and was determined using FLIPR1 or Tetra (Molecular Devices). EC50 was determined using GraphPad Prism 5 (GraftPad Software, La Jolla, Calif.). […] Ca++ flux was monitored using FLIPR1 and data was analyzed using GraphPad Prism 5.
The ability of anti-PGE2 antibodies and anti-PGE2 containing DVD-Ig molecules to inhibit the cellular response of PGE2 was determined in a Ca++ flux assay using stably transfected human EP4 in HEK293 Gα16 cells. Cells were plated in black/clear Poly-D-Lysine plates, (Corning #3667) and incubated with Ca++-sensitive dye (Molecular Devices) for 90 minutes. Stock PGE2 (in 200 proof ethanol) was diluted with FLIPR buffer (containing 1×HBSS, 20 mM HEPES, 0.1% BSA and 2.5 mM Probenecid). Anti-PGE2 antibodies, DVD-Ig molecules or isotype matched control antibodies were also pre-diluted in FLIPR buffer. 25 μl of PGE2 or pre-incubated PGE2/antibody mixture or pre-incubated PGE2/DVD-Ig molecule mixture was added to the wells pre-plated with cells. A dose response of PGE2 was done by a serial titration of PGE2 and was determined using FLIPR1 or Tetra (Molecular Devices). EC50 was determined using GraphPad Prism 5. […] Ca++ flux was monitored using FLIPR1 and data was analyzed using GraphPad Prism 5.

Data set [3] has as its system stable cell lines overexpressing a cell-surface antigen of interest or human tumor cell lines. The experiment in a line: Flow cytometry (FACS) binding to cell surface antigen. As to conditions: IL-6R VD in C-terminal position; 2 μg/mL. Type of data set: cell-based. The procedure: Stable cell lines overexpressing cell-surface antigen of interest or human tumor cell lines were harvested from tissue culture flasks and resuspended in phosphate buffered saline (PBS) containing 5% fetal calf serum (PBS/FCS). Prior to staining, human tumor cells were incubated on ice with human IgG at 200 μg/ml in PBS/FCS. 1-5×10^5 cells were incubated with antibody or DVD-Ig (1-2 μg/mL) in PBS/FCS for 30-60 minutes on ice. […] After 30 minutes incubation on ice, cells were washed twice and resuspended in PBS/FCS. Fluorescence was measured using a Becton Dickinson FACSCalibur (Becton Dickinson, San Jose, Calif.).
Stable cell lines overexpressing a cell-surface antigen of interest or human tumor cell lines were harvested from tissue culture flasks and resuspended in phosphate buffered saline (PBS) containing 5% fetal bovine serum (PBS/FBS). Prior to staining, human tumor cells were incubated on ice with (100 μl) human IgG at 5 μg/ml in PBS/FCS. 1-5×10^5 cells were incubated with antibody or DVD-Ig (2 μg/mL) in PBS/FBS for 30-60 minutes on ice. […] After 30 minutes incubation on ice, cells were washed twice and resuspended in PBS/FBS. Fluorescence was measured using a Becton Dickinson FACSCalibur (Becton Dickinson, San Jose, Calif.).
The geometric mean is the n root of the multiplication product of n fluorescent signals (a1×a2×a3 . . . an). […]

Data set [4] in a line: Size exclusion chromatography, percent monomer of parent antibodies and DVD-Ig constructs. The format is physicochemical. The procedure:
Antibodies were diluted to 2.5 mg/mL with water and […] is analyzed on a Shimadzu HPLC system using a TSK gel G3000 SWXL column (Tosoh Bioscience, cat#k5539-05k). […] The HPLC system operating conditions are the following: […]

The subject of data set [5] is C57BL6/N mice, LPS/D-Galactosamine-induced lethality. As to the kind of experiment: LPS-D-galactosamine-induced lethality. The format is in vivo, mouse. The settings on record: 12 mg/kg IP. The procedure: Saline alone was used as a negative control. Another group received […] 8C11-1E10, an anti-mouse TNF monoclonal antibody, as a positive control.
At the time of challenge, the mice were injected i.p. with 500 μL dose volume of saline containing 100 ng/mouse LPS (Sigma L4130, lot 095K4056, St. Louis, Mo.) and 20 mg/mouse D-Galactosamine (Sigma G-0500, lot 048K1547, St. Louis, Mo.). The mice were then monitored for lethality twice a day for 48 hours. At 48 hours the remaining surviving mice were sacrificed and bled for plasma antibody levels.

B1: DVD151: DVD-Ig construct listed in Table 4 (antibody)
VH: EVQLVQSGAEVKKPGASVKVSCKASGYTFTKYWLGWVRQAPGQGLEWMGDIYPGYDYTHYNEKFKDRVTLTTDTSTSTAYMELRSLRSDDTAVYYCARSDGSSTYWGQGTLVTVSSASTKGPEVQLQESGPGLVRPSQTLSLTCTVSGYSITSDHAWSWVRQPPGRGLEWIGYISYSGITTYNPSLKSRVTMLRDTSKNQFSLRLSSVTAADTAVYYCARSLARTTAMDYWGQGSLVTVSS
VL: DVLMTQTPLSLPVTPGEPASISCTSSQNIVHSNGNTYLEWYLQKPGQSPQLLIYKVSNRFSGVPDRFSGSGSGTDFTLKISRVEAEDVGVYYCFQVSHVPYTFGGGTKVEIKRTVAAPDIQMTQSPSSLSASVGDRVTITCRASQDISSYLNWYQQKPGKAPKLLIYYTSRLHSGVPSRFSGSGSGTDFTFTISSLQPEDIATYYCQQGNTLPYTFGQGTKVEIKR
On to B1, for which the EC50 is 1520 pM in data set [1] and 36 pM in data set [2]. For the same molecule, in data set [3], the “FACS Geometric Mean C-terminal” value is on record as 0.21. For the same molecule, the “% Monomer (purity)” value in data set [4] turned out to be 92.7%.

B2: 8C11: murine anti-mouse TNFα monoclonal antibody clone (antibody, V domains shown)
VH: EFQLQQSGPELVKPGASVRISCKASGYSFTDYNMNWVKQSNGKSLEWVGVINPNYGSSTYNQKFKGKATLTVDQSSSTAYMQLNSLTSEDSAVYYCARKWGQLGRGFFDVWGTGTTVTVSS
VL: QIVLSQSPAILSASPGEKVTMTCRASSSVSYMHWFQQKPGSSPKPWIYATSNLASGVPARFSGSGSGTSYSLTISRVEAEDAATYYCQQWSSSPLTFGAGTKLELKR
As to B2, in data set [5], the “% Survival” value came to 100% and the “Mean Plasma Ab Concentration” value stood at 65 ± 4.0 µg/mL.
